Laboratory results reported in article PMC9346500 (EMBO Reports, 2022).

Tests used:
[1] = molecular target: HOTag6-G10-Ub (designed tetrameric ubiquitin construct); test: NMR titration
[2] = molecular target: T1, M1-linked tetraubiquitin (M1-Ub4) (UniProt P0CG48 1-76; P0CG48 1-76; P0CG48 1-76; P0CG48 1-76); test: NMR titration
[3] = molecular target: HOTag6-G10-Ub (designed tetrameric ubiquitin construct); test: fluorescence polarisation
ubiquitin (Ub) = ubiquitin (Ub) (UniProt P0CG48 1-76); test: fluorescence polarisation
[4] = molecular target: T1, M1-linked tetraubiquitin (M1-Ub4); test: fluorescence polarisation

T1 sequence (P0CG48 1-304, one chain of several): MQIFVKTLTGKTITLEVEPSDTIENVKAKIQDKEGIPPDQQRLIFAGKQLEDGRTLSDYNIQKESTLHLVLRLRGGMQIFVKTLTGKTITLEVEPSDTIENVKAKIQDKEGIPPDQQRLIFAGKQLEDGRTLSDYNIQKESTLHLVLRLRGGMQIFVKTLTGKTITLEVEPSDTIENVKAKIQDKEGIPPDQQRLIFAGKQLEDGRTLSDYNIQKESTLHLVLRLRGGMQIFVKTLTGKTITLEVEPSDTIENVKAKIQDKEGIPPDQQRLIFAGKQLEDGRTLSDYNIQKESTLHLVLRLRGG

| Binder | Kd [1] [µM] | Kd [2] [µM] | Kd [3] [µM] | Kd (ubiquitin (Ub)) [µM] | Kd [4] [µM] |
| --- | --- | --- | --- | --- | --- |
| UBQLN2 450–624 (domain or fragment, UniProt Q9UHD9 450-624, looked up) RAMQALMQIQQGLQTLATEAPGLIPSFTPGVGVGVLGTAIGPVGPVTPIGPIGPIVPFTPIGPIGPIGPTGPAAPPGSTGSGGPTGPTVSSAAPSETTSPTSESGPNQQFIQQMVQALAGANAPQLPNPEVRFQQQLEQLNAMGFLNREANLQALIATGGDINAAIERLLGSQPS | 8.8 | 12.8 | – | – | – |
| fluorescently-labeled UBQLN2 450–624 (S624C, Alexa Fluor 488) (domain or fragment, UniProt Q9UHD9 450-624, looked up, Alexa Fluor 488 C5 Maleimide on the cysteine of S624C) RAMQALMQIQQGLQTLATEAPGLIPSFTPGVGVGVLGTAIGPVGPVTPIGPIGPIVPFTPIGPIGPIGPTGPAAPPGSTGSGGPTGPTVSSAAPSETTSPTSESGPNQQFIQQMVQALAGANAPQLPNPEVRFQQQLEQLNAMGFLNREANLQALIATGGDINAAIERLLGSQPC | – | – | 7 | 3.4 | 5.1 |
